Measured values: paper PMC5673899, “Structural basis for receptor recognition of pollen tube attraction peptides” (Nature Communications, 2017)
“Also recorded” adds a separate entry of the source.

Columns and labels:
AtPRK6^LRR = assay: Gel filtration assay with AtPRK6^LRR; format: binding, Arabidopsis thaliana
From the text: (§1) The genes of AtPRK3 ^LRR (residues 1–241), AtPRK4 ^LRR (residues 1–277), AtPRK5 ^LRR (residues 1–279), AtPRK6 ^LRR (residues 1–262), MIK1 ^LRR (residues 1–633), MIK2 ^LRR (residues 1–707) were amplified from Arabidopsis cDNA library by PCR and cloned into pFastBac-1 vector with a C-terminal 6 × His-tag. Their identities were confirmed by sequencing. The mature form of AtLURE1.1 (residues 20–94), AtLURE1.2 (residues 20–90), AtLURE1.3 (residues 21–91), and AtLURE1.4 (residues 20–90) were cloned into pFastBac-1 vector, with a modified N-terminal hemolin signal peptide and 6 × His-SUMO tag. Point mutation constructs were generated by QuickChange Site-Directed Mutagenesis Kit (Strategene). All the proteins were expressed using the Bac-to-Bac baculovirus expression system (Invitrogen) in High Five cells at 22 °C. One liter of High Five cells (2.0 × 10^6 cells mL^−1) cultured in the medium from Expression Systems was infected with 25 ml recombinant baculovirus and the media was collected after 72 h of infection. Secreted LRR proteins were purified using Ni-NTA (Novagen) and size-exclusion chromatography (Hiload 200, GE Healthcare) in buffer containing 10 mM Bis-Tris pH 6.0 and 100 mM NaCl. The His-SUMO tag of the AtLURE proteins was removed by Prescission Protease at 4 °C overnight in buffer containing 25 mM Tris pH 8.0 and 150 mM NaCl. […]

MIK2^LRR = assay: ITC, AtLURE1.2 titrated into MIK2^LRR; format: binding, Arabidopsis; details: 25 °C, 200 mM HEPES pH 7.0, 100 mM NaCl, as for MIK1LRR (0.5 mM AtLURE1.2 into 0.05 mM)
From the text: as §1, with “NaCl.” for “NaCl. The His-SUMO tag of the AtLURE proteins was removed by Prescission Protease at 4 °C overnight in buffer containing 25 mM Tris pH 8.0 and 150 mM NaCl.”
Supplementary Figure 6: Binding affinity between MIK1LRR, MIK2LRR and AtLURE1.2 was not detected in ITC assay. […]

AtPRK3^LRR = assay: ITC, AtLURE1.2 titrated into AtPRK3^LRR; format: binding, Arabidopsis; details: 25 °C, 200 mM HEPES pH 7.0, 100 mM NaCl, ~0.9 mM AtLURE1.2 into 0.08 mM AtPRK3^LRR
From the text: as §1

B1: AtLURE1.2: mature form of AtLURE1.2 (residues 20–90), defensin-like cysteine-rich peptide expressed in insect cells (protein)
chain: TLINGSSDEERTYSFSPTTSPFDPRSLNQELKIGRIGYCFDCARACMRRGKYIRTCSFERKLCRCSISDIK
modifications: left off: His6, N-terminal, cleaved | SUMO, N-terminal, cleaved
notes: mature form of AtLURE1.2 (residues 20–90), defensin-like cysteine-rich peptide expressed in insect cells
**Q.** How did the “effect on monomeric state of AtPRK6^LRR in solution” value (AtPRK6^LRR; gel filtration) turn out when B1 was run?
**A.** The value was “did not alter the monomeric status; also recorded: does not alter the monomeric state”.

**Q.** And the “complex formation in gel filtration” value (AtPRK6^LRR; purified proteins mixed at molar ratio about 1:3, 4 °C 30 min, 10 mM Bis-Tris pH 6.0, 100 mM NaCl)?
**A.** Its value is “formed a stable complex”.

**Q.** And the “binding in ITC” value (MIK2^LRR)?
**A.** The value was “not detected; also recorded: no obvious heat was produced; also recorded: none of the purified AtPRK3^LRR, MIK1^LRR or MIK2^LRR proteins showed detectable interaction”.

**Q.** And the “binding in ITC” value (AtPRK3^LRR)?
**A.** The value was “none of the purified AtPRK3^LRR, MIK1^LRR or MIK2^LRR proteins showed detectable interaction”.
